Patent publication US5604098

Biological target: T1, CviJ I restriction endonuclease (Chlorella virus IL-3A (infected Chlorella NC64A)) (UniProt P52283)
T1 sequence: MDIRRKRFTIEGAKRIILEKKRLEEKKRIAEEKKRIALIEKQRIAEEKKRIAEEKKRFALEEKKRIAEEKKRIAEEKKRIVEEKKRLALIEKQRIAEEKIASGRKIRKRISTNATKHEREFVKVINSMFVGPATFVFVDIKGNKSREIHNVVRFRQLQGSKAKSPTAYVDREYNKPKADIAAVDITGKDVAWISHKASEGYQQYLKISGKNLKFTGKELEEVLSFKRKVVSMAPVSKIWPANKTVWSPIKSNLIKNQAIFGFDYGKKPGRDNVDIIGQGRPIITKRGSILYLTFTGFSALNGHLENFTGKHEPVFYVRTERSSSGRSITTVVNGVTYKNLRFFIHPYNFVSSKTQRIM
Test: cleavage_in_vitro
Conditions: for activity (% of cleaved junctions): CviJ I* complete digest; for activity (% of cloned junctions): CviJ I** partial digest

CGCT (double strand) [CGCT site]
activity (% of cleaved junctions) (17 cleaved, 7 not cleaved): 8.5
activity (% of cloned junctions): 2.6

AGCG (double strand) [AGCG site]
activity (% of cleaved junctions) (12 cleaved, 11 not cleaved): 6
activity (% of cloned junctions): 0

CGCG (double strand) [CGCG site]
activity (% of cleaved junctions) (27 not cleaved): 0
activity (% of cloned junctions): 0

AGCA (double strand) [AGCA site]
activity (% of cleaved junctions) (13 cleaved, 5 not cleaved): 6.5
activity (% of cloned junctions): 1.3

CGCC (double strand) [CGCC site]
activity (% of cleaved junctions) (11 cleaved, 4 not cleaved): 5.5
activity (% of cloned junctions): 0

TGCG (double strand) [TGCG site]
activity (% of cleaved junctions) (3 not cleaved): 0
activity (% of cloned junctions): 0

GGCC (double strand) [GGCC site]
activity (% of cleaved junctions) (24 cleaved, 1 not cleaved): 12
activity (% of cloned junctions): 21.1

TGCT (double strand) [TGCT site]
activity (% of cleaved junctions) (10 cleaved, 5 not cleaved): 5
activity (% of cloned junctions): 1.3

AGCT (double strand) [AGCT site]
activity (% of cleaved junctions) (35 cleaved, 0 not cleaved): 17.5
activity (% of cloned junctions): 32.9

TGCC (double strand) [TGCC site]
activity (% of cleaved junctions) (13 cleaved, 10 not cleaved): 6.5
activity (% of cloned junctions): 2.6

AGCC (double strand) [AGCC site]
activity (% of cleaved junctions) (23 cleaved, 1 not cleaved): 11.5
activity (% of cloned junctions) (Mg, ATP, DTT, 20% DMSO, low salt): 17.1

CGCA (double strand) [CGCA site]
activity (% of cleaved junctions) (12 not cleaved): 0
activity (% of cloned junctions): 0

GGCT (double strand) [GGCT site]
activity (% of cleaved junctions) (13 cleaved, 0 not cleaved): 6.5
activity (% of cloned junctions): 15.8

GGCA (double strand) [GGCA site]
activity (% of cleaved junctions) (11 cleaved, 3 not cleaved): 5.5
activity (% of cloned junctions): 0

GGCG (double strand) [GGCG site]
activity (% of cleaved junctions) (18 cleaved, 8 not cleaved): 9
activity (% of cloned junctions): 5.2

TGCA (double strand) [TGCA site]
activity (% of cleaved junctions) (19 not cleaved): 0
activity (% of cloned junctions): 0
